Holding throughout (conditions): both partners purified
The target of assay [1] is T1, Recombinant Ded1-His (S. cerevisiae, UniProt P06634 1-604).
T1 construct: Ded1, DEAD-box RNA helicase of budding yeast, wild type, recombinant; also called purified Ded1
The experiment in a line: co-IP; as a3 but purified Ded1 with combinations of purified SRP proteins (SRP21 with SRP14; SRP54 with Sec65; SRP14, SRP21, SRP54 and Sec65 together); recovered with Ded1-specific IgG on protein A-Sepharose beads; SDS-PAGE, Coomassie blue.

The target of assay [2] is T2, Recombinant His-tagged SRP21 (S. cerevisiae, UniProt P32342 1-167).
T2 construct: SRP21 of the yeast signal recognition particle; subcloned into the NdeI and XhoI sites of pET22b; source: E. coli Rosetta (DE3), pET22b, purified (Ni-NTA)
T2 sequence (looked up): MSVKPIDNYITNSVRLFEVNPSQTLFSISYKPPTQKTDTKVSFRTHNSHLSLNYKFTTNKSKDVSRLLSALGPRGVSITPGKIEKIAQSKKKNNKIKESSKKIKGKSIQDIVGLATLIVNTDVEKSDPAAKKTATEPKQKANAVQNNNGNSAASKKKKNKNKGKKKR
Described as above.

Assay [3] concerns the target T1, Recombinant Ded1-His. As to the kind of experiment: co-IP; purified Ded1 (4 µg) with one purified SRP protein (4-6 µg), no RNA, 300 µl 1X PBS with 2 mM MgCl2, 45 min at 30°C; recovered with Ded1-specific IgG cross-linked to protein A-Sepharose beads, 1 h at 18°C; 12% SDS-PAGE, Coomassie blue.

T1 sequence (P06634 whole entry): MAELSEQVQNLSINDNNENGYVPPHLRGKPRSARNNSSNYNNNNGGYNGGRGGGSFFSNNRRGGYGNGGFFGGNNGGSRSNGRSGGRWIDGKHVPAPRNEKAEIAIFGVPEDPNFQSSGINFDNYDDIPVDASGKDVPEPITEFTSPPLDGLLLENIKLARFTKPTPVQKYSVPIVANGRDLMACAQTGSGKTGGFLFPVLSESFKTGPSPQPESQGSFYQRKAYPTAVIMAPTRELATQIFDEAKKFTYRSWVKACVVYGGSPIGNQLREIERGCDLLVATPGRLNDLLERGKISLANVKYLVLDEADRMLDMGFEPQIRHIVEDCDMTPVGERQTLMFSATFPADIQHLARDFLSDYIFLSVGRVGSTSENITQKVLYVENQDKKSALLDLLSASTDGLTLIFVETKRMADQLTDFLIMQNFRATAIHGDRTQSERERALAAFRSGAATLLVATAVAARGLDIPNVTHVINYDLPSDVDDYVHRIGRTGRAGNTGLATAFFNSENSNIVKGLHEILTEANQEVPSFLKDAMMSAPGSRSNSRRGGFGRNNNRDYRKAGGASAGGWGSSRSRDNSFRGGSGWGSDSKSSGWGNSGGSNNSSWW

B1: Recombinant His-tagged SRP14 (natural protein, S. cerevisiae, UniProt P38985 1-146, looked up)
chain: MANTGCLSPGAFLSKVPEFFQTANEKHITVRLTAKRLIEHDPVEGNLEFDSTNHPDYDVSKKASEISVSSRSDREYPLLIRMSYGSHDKKTKCSTVVKASELDQFWQEYSSVFKGGMQNLIKKKKKKSKNGTISKTGKKNKVAKKN
notes: SRP14 of the yeast signal recognition particle; subcloned into the NdeI and XhoI sites of pET22b; source: E. coli Rosetta (DE3), pET22b, purified (Ni-NTA)
As to B1, the binding result (with Recombinant Ded1-His [1]; in assay [2]) was “binds” throughout.

B2: Recombinant His-tagged Sec65 (natural protein, S. cerevisiae, UniProt P29478 1-273, looked up)
chain: MPRLEEIDDFNDIDDLDMELAELDPSLRTPIAPKITPKVVRSQDQENPAFLPGTNNNSNSNNNSSNEKEQLSFINPKTGKVERSEAISKKDLEEVKRFQVLYPCYFDINRSHKEGRRVPKELAVENPLAKTMADAVRELGILCIFEGEKCHPQDFGNPGRIRVLFKENGQLIGAATKFKGGKRQLMKAVGEYMKRHPTTIESLREIPYGPDFDNIEFKKIPRVKGFKMNEIVPLHSPFLMGHPMTKSVYETPKITAAEKSFKPPKNKYKVVRR
notes: Sec65 of the yeast signal recognition particle; source: E. coli Rosetta (DE3), pET19b, purified (Ni-NTA)
As to B2, the binding result with Recombinant Ded1-His [3] is “binds”.
